In the Human Domainome abundance scans (Beltran et al. 2025):
± gives the uncertainty stated by the source.

B1: Nucleosome-remodeling factor subunit BPTF, residues 2862 to 2918; numbered along this chain, Q12830 (parent)
chain: TKKDTKLYCICKTPYDESKFYIGCDRCQNWYHGRCVGILQSEAELIDEYVCPQCQST

Variants of: B1
Assay: abundance fitness (aPCA) (normalised: wild type 0, dead -1); higher = more abundant; growth selection in yeast, the domain comes from the species named
Settings: Homo sapiens

Variant | abundance fitness
TKKKTKLYCICKTPYDESKFYIGCDRCQNWYHGRCVGILQSEAELIDEYVCPQCQST [D4K] | -0.005 ± 0.086
TKKLTKLYCICKTPYDESKFYIGCDRCQNWYHGRCVGILQSEAELIDEYVCPQCQST [D4L] | -0.238 ± 0.059
TKKMTKLYCICKTPYDESKFYIGCDRCQNWYHGRCVGILQSEAELIDEYVCPQCQST [D4M] | -0.088 ± 0.11
TKKNTKLYCICKTPYDESKFYIGCDRCQNWYHGRCVGILQSEAELIDEYVCPQCQST [D4N] | -0.087 ± 0.066
TKKPTKLYCICKTPYDESKFYIGCDRCQNWYHGRCVGILQSEAELIDEYVCPQCQST [D4P] | -0.112 ± 0.074
TKKRTKLYCICKTPYDESKFYIGCDRCQNWYHGRCVGILQSEAELIDEYVCPQCQST [D4R] | -0.446 ± 0.062
TKKSTKLYCICKTPYDESKFYIGCDRCQNWYHGRCVGILQSEAELIDEYVCPQCQST [D4S] | -0.008 ± 0.055
TKKTTKLYCICKTPYDESKFYIGCDRCQNWYHGRCVGILQSEAELIDEYVCPQCQST [D4T] | -0.124 ± 0.066
TKKVTKLYCICKTPYDESKFYIGCDRCQNWYHGRCVGILQSEAELIDEYVCPQCQST [D4V] | -0.215 ± 0.061
TKKYTKLYCICKTPYDESKFYIGCDRCQNWYHGRCVGILQSEAELIDEYVCPQCQST [D4Y] | -0.154 ± 0.073
TKKDAKLYCICKTPYDESKFYIGCDRCQNWYHGRCVGILQSEAELIDEYVCPQCQST [T5A] | -0.213 ± 0.07
TKKDCKLYCICKTPYDESKFYIGCDRCQNWYHGRCVGILQSEAELIDEYVCPQCQST [T5C] | 0.002 ± 0.077
TKKDDKLYCICKTPYDESKFYIGCDRCQNWYHGRCVGILQSEAELIDEYVCPQCQST [T5D] | 0.028 ± 0.08
TKKDEKLYCICKTPYDESKFYIGCDRCQNWYHGRCVGILQSEAELIDEYVCPQCQST [T5E] | 0.064 ± 0.12
TKKDFKLYCICKTPYDESKFYIGCDRCQNWYHGRCVGILQSEAELIDEYVCPQCQST [T5F] | -0.076 ± 0.068
TKKDGKLYCICKTPYDESKFYIGCDRCQNWYHGRCVGILQSEAELIDEYVCPQCQST [T5G] | -0.155 ± 0.073
TKKDHKLYCICKTPYDESKFYIGCDRCQNWYHGRCVGILQSEAELIDEYVCPQCQST [T5H] | -0.055 ± 0.066
TKKDIKLYCICKTPYDESKFYIGCDRCQNWYHGRCVGILQSEAELIDEYVCPQCQST [T5I] | -0.017 ± 0.062
TKKDKKLYCICKTPYDESKFYIGCDRCQNWYHGRCVGILQSEAELIDEYVCPQCQST [T5K] | 0.05 ± 0.086
TKKDLKLYCICKTPYDESKFYIGCDRCQNWYHGRCVGILQSEAELIDEYVCPQCQST [T5L] | -0.092 ± 0.063
TKKDMKLYCICKTPYDESKFYIGCDRCQNWYHGRCVGILQSEAELIDEYVCPQCQST [T5M] | 0.024 ± 0.094
TKKDNKLYCICKTPYDESKFYIGCDRCQNWYHGRCVGILQSEAELIDEYVCPQCQST [T5N] | 0.016 ± 0.063
TKKDQKLYCICKTPYDESKFYIGCDRCQNWYHGRCVGILQSEAELIDEYVCPQCQST [T5Q] | -0.052 ± 0.1
TKKDSKLYCICKTPYDESKFYIGCDRCQNWYHGRCVGILQSEAELIDEYVCPQCQST [T5S] | -0.071 ± 0.057

Variant | abundance fitness
TKKDVKLYCICKTPYDESKFYIGCDRCQNWYHGRCVGILQSEAELIDEYVCPQCQST [T5V] | -0.282 ± 0.06
TKKDWKLYCICKTPYDESKFYIGCDRCQNWYHGRCVGILQSEAELIDEYVCPQCQST [T5W] | -0.238 ± 0.11
TKKDYKLYCICKTPYDESKFYIGCDRCQNWYHGRCVGILQSEAELIDEYVCPQCQST [T5Y] | -0.016 ± 0.066
TKKDTALYCICKTPYDESKFYIGCDRCQNWYHGRCVGILQSEAELIDEYVCPQCQST [K6A] | 0.069 ± 0.072
TKKDTCLYCICKTPYDESKFYIGCDRCQNWYHGRCVGILQSEAELIDEYVCPQCQST [K6C] | -0.161 ± 0.089
TKKDTDLYCICKTPYDESKFYIGCDRCQNWYHGRCVGILQSEAELIDEYVCPQCQST [K6D] | -0.062 ± 0.084
TKKDTELYCICKTPYDESKFYIGCDRCQNWYHGRCVGILQSEAELIDEYVCPQCQST [K6E] | -0.042 ± 0.15
TKKDTFLYCICKTPYDESKFYIGCDRCQNWYHGRCVGILQSEAELIDEYVCPQCQST [K6F] | -0.278 ± 0.067
TKKDTGLYCICKTPYDESKFYIGCDRCQNWYHGRCVGILQSEAELIDEYVCPQCQST [K6G] | -0.071 ± 0.081
TKKDTHLYCICKTPYDESKFYIGCDRCQNWYHGRCVGILQSEAELIDEYVCPQCQST [K6H] | -0.057 ± 0.057
TKKDTILYCICKTPYDESKFYIGCDRCQNWYHGRCVGILQSEAELIDEYVCPQCQST [K6I] | -0.08 ± 0.06
TKKDTLLYCICKTPYDESKFYIGCDRCQNWYHGRCVGILQSEAELIDEYVCPQCQST [K6L] | -0.085 ± 0.055
TKKDTMLYCICKTPYDESKFYIGCDRCQNWYHGRCVGILQSEAELIDEYVCPQCQST [K6M] | -0.013 ± 0.078
TKKDTNLYCICKTPYDESKFYIGCDRCQNWYHGRCVGILQSEAELIDEYVCPQCQST [K6N] | -0.045 ± 0.058
TKKDTPLYCICKTPYDESKFYIGCDRCQNWYHGRCVGILQSEAELIDEYVCPQCQST [K6P] | 0.034 ± 0.061
TKKDTQLYCICKTPYDESKFYIGCDRCQNWYHGRCVGILQSEAELIDEYVCPQCQST [K6Q] | -0.032 ± 0.081
TKKDTRLYCICKTPYDESKFYIGCDRCQNWYHGRCVGILQSEAELIDEYVCPQCQST [K6R] | -0.086 ± 0.071
TKKDTSLYCICKTPYDESKFYIGCDRCQNWYHGRCVGILQSEAELIDEYVCPQCQST [K6S] | -0.035 ± 0.057
TKKDTTLYCICKTPYDESKFYIGCDRCQNWYHGRCVGILQSEAELIDEYVCPQCQST [K6T] | 0.008 ± 0.061
TKKDTVLYCICKTPYDESKFYIGCDRCQNWYHGRCVGILQSEAELIDEYVCPQCQST [K6V] | -0.161 ± 0.07
TKKDTKAYCICKTPYDESKFYIGCDRCQNWYHGRCVGILQSEAELIDEYVCPQCQST [L7A] | -0.014 ± 0.071
TKKDTKCYCICKTPYDESKFYIGCDRCQNWYHGRCVGILQSEAELIDEYVCPQCQST [L7C] | -0.058 ± 0.07
TKKDTKDYCICKTPYDESKFYIGCDRCQNWYHGRCVGILQSEAELIDEYVCPQCQST [L7D] | 0.023 ± 0.1
